Laboratory results as given in paper PMC7864055, “Biochemical and biophysical analyses of hypoxia sensing prolyl hydroxylases from Dictyostelium discoideum and Toxoplasma gondii” (The Journal of Biological Chemistry, 2021).

Substrate: O=C(O)CCC(=O)C(=O)O
Test: RapidFire SPE-MS of Skp1 hydroxylation, Michaelis-Menten fit
Type: biochemical, Dictyostelium discoideum
Settings: cosubstrate, full-length DdSkp1 100 μM, Fe(II) 50 μM, L-ascorbate 1 mM, HEPES pH 7.6, 37 °C, atmospheric O2
Description: RapidFire SPE-MS of Skp1 hydroxylation, Michaelis-Menten fit on DdPhyA

B1: DdPhyA (Dictyostelium discoideum) (protein)
chain: MDISNLPPHIRQQILGLISKPQQNNDESSSSNNKNNLINNEKVSNVLIDLTSNLKIENFKIFNKESLNQLEKKGYLIIDNFLNDLNKINLIYDESYNQFKENKLIEAGMNKGTDKWKDKSIRGDYIQWIHRDSNSRIQDKDLSSTIRNINYLLDKLDLIKNEFDNVIPNFNSIKTQTQLAVYLNGGRYIKHRDSFYSSESLTISRRITMIYYVNKDWKKGDGGELRLYTNNPNNTNQKELKQTEEFIDIEPIADRLLIFLSPFLEHEVLQCNFEPRIAITTWIY
notes: full-length aa 1-284, E. coli BL21 Gold (DE3), N-terminal His6-ZBasic tag cleaved by TEV, EDTA-treated to remove metal
Km: 36 ± 6 µM
